For experiment [1], the target named is CD3 on T cells of human peripheral blood mononuclear cells (human) (UniProt P07766). Nature of the experiment: cell-based or functional assay.
Another experiment has as its target human CD3εδ (human) (UniProt P07766). Nature of the experiment: SPR (Biacore T200), binding to CD3εδ against binding to CD3εγ.

Data on 1 substance can be found in patent US20260258128A1.

CD3 on T cells of human peripheral blood mononuclear cells (human), sequence (P07766 23-207): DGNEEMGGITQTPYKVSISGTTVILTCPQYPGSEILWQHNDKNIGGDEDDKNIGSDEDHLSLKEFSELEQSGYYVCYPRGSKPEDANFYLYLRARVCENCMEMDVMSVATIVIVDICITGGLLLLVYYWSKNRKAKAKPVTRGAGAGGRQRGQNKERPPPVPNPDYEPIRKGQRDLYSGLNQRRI
human CD3εδ (human), sequence (P07766 23-126, stated change not applied, chain 1 of 2): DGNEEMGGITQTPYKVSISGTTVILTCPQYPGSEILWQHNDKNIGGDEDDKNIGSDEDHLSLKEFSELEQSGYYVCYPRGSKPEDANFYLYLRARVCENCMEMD
human CD3εδ (human), sequence (P04234 22-105, stated change not applied, chain 2 of 2, further chain): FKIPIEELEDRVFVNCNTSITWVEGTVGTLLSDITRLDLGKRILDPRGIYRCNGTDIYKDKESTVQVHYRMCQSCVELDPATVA

As to CD3 (UCHT1)-binding monoclonal antibody, in experiment [1], the Death of cancer cells EC50 (MDA-MB-231 + human PBMC, flow cytometry) is 0.5 pM; the Death of cancer cells Emax (%) came to 46%; the IFNγ release EC50 is 3 pM; the IFNγ release Maximum concentration worked out at 16 ng/mL. The substance also returned a T cell activation (CD3+ CD8+ CD69+), human PBMC only, flow cytometry in experiment [1] of 60%. Moreover, the ratio of the binding strength to CD3εδ/binding strength to CD3εγ with human CD3εδ (human) was determined as 19.3 fold.
